For 1 molecule, Kd, koff and kon results are on record in article PMC10426277 (European journal of pharmacology, 2023).

Experiment in all cases: SPR
In general terms: In SPR one partner is held on a chip, and binding of the other changes the refractive index at the surface.

The target in assay [1] is T1, Peroxiredoxin 1 mutant, last 22 amino acids of the C-terminus deleted (human, UniProt Q06830 1-177).
T1 sequence (looked up): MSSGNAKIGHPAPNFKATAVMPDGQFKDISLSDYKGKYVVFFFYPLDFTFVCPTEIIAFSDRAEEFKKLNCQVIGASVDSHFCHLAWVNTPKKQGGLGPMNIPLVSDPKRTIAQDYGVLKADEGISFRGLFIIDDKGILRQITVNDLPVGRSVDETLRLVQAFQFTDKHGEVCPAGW

The target of assay [2] is T2, Peroxiredoxin 4 mutant, C-terminal 22 amino acids deleted (human, UniProt Q13162 38-249).
T2 sequence (looked up): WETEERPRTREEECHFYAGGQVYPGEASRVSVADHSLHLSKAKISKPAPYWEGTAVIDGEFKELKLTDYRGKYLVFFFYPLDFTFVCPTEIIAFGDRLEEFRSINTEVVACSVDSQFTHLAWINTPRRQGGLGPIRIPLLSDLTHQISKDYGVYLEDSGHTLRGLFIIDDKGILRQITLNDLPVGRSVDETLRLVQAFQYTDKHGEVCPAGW

The target of assay [3] is T3, Peroxiredoxin 1 wildtype, recombinant full-length (human, UniProt Q06830 1-199).
T3 sequence (looked up): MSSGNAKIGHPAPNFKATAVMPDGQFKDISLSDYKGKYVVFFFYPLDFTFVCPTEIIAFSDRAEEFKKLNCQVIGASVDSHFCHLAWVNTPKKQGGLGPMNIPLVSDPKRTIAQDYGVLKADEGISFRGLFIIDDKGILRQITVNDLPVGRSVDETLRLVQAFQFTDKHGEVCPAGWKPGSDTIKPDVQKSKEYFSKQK

Usually Kd stands for the concentration at which binding is half-saturated. For orientation: koff means the rate constant with which the complex falls apart. As a reminder, the kon is the second-order rate constant of association.

B1: Sulfiredoxin (Srx), recombinant full-length (enzyme)
chain: not shown
In assay [1], B1 returned a Kd of 0.175 µM, a koff of 0.000444 s⁻¹ and a kon of 2540 M⁻¹ s⁻¹. In assay [2], this molecule showed a Kd of 29.7 µM, a koff of 0.00269 s⁻¹ and a kon of 90.4 M⁻¹ s⁻¹. In assay [3], the Kd came to 769 µM, the koff was found to be 0.000532 s⁻¹ and the kon was determined as 0.693 M⁻¹ s⁻¹.
